Patent publication US20240156870A1 (NATIONAL RESEARCH COUNCIL OF CANADA, published 2024)
Changes are numbered by the printed parent chain. Where two headings read alike, the source gives them in different places. Each block holds one molecule with its values, some of them ahead of it.

How the values were obtained:
[1] = target: T1, human EGFR-Fc fusion protein (human, UniProt P00533 25-645); assay: SPR single-cycle, VHH over amine-coupled human EGFR-Fc
T1 construct: Bought; not shown: Fc part of the bought fusion

[2] = target: recombinant human EGFRvIII ectodomain (human) (UniProt P00533); assay: SPR multi-cycle, VHH over amine-coupled EGFRvIII ectodomain
[3] = target: recombinant 6xHis-tagged human EGFR ectodomain (human) (UniProt P00533); assay: SPR multi-cycle, VHH over amine-coupled EGFR ectodomain
[4] = target: T2, human EGFR, native, on the cell surface (human, UniProt P00533 25-1210); assay: Mirrorball microplate cytometry, adherent MDA-MB-468 cells
T2 construct: MCF7 is EGFR-low and serves as low-expression control; also called native cell-surface EGFR

[5] = target: T3, rhesus EGFR-Fc fusion protein (rhesus, UniProt P55245 25-645); assay: SPR single-cycle, VHH over amine-coupled rhesus EGFR-Fc
T3 construct: Bought; not shown: Fc part of the bought fusion

[6] = target: T4, mouse EGFR-Fc fusion protein (mouse, UniProt Q01279 25-647); assay: SPR single-cycle, VHH over amine-coupled mouse EGFR-Fc
T4 construct: Bought; not shown: Fc part of the bought fusion

[7] = target: T4, mouse EGFR-Fc fusion protein; assay: ELISA, VHH titrated from about 0.5 to 1000 ng/mL, OD 450 nm
[8] = target: T1, human EGFR-Fc fusion protein; assay: as above
[9] = target: T3, rhesus EGFR-Fc fusion protein; assay: as above
[10] = target: T3, rhesus EGFR-Fc fusion protein; assay: SPR single-cycle, VHH over amine-coupled rhesus EGFR-Fc; remark: listed apart in the source
Procedure: (§1) In the second SPR experiment, single-cycle kinetic analyses were performed on a Biacore™ T200 instrument (GE Healthcare) at 25° C. in HBS-EP buffer. […] An ethanolamine-blocked flow cell served as the reference. Monomeric VHHs at concentrations ranging from 0.6 to 50 nM were injected over the EGFR surfaces in HBS-EP buffer at a flow rate of 40 μL/min. The contact time was 180 s and the dissociation time was 600 s. The EGFR surfaces were regenerated using a 10 s pulse of 10 mM glycine, pH 1.5.

[11] = target: T5, recombinant 6xHis-tagged human EGFR ectodomain (human, UniProt P00533 25-645); assay: SPR multi-cycle, VHH over amine-coupled EGFR ectodomain
T5 construct: extracellular domain; Bought; also called recombinant human EGFR; EGFR extracellular domain; not shown: 6xHis tag

[12] = target: T1, human EGFR-Fc fusion protein; assay: SPR, VHH over human EGFR-Fc;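 also: Single-cycle kinetics on Biacore T200 at 25 °C in HBS-EP, monomeric VHHs at 0.6–50 nM flowed over immobilized EGFR, 180 s association, 600 s dissociation, ethanolamine-blocked reference cell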
Procedure: as §1

[13] = target: T2, human EGFR, native, on the cell surface; assay: Mirrorball microplate cytometry, serial dilution, AF488 anti-human Fc; the cell line is not named in the legend of FIG. 5D (paragraph 463 treats it with the MDA-MB-468 assay of FIG. 5B)
[14] = target: T4, mouse EGFR-Fc fusion protein; assay: ELISA, VHH titrated from about 0.5 to 1000 ng/mL, OD 450 nm; remark: listed apart in the source
[15] = target: T1, human EGFR-Fc fusion protein; assay: as above; remark: listed apart in the source
[16] = target: T3, rhesus EGFR-Fc fusion protein; assay: as above; remark: listed apart in the source
[17] = target: T5, recombinant 6xHis-tagged human EGFR …; assay: SPR (value of Table 2 repeated in Table 6)
Procedure: In the first SPR experiment, multi-cycle kinetic analyses were performed on a Biacore™ 3000 instrument (GE Healthcare) at 25° C. in HBS-EP buffer [10 mM HEPES, pH 7.4, containing 150 mM NaCl, 3 mM EDTA and 0.005% (w/v) surfactant P20]. […] An ethanolamine-blocked flow cell served as the reference. Monomeric VHHs at concentrations ranging from 0.1 to 100 nM were injected over the EGFR and EGFRvIII surfaces in HBS-EP buffer at a flow rate of 20 μL/min. […] Contact times were 180-300 s and dissociation times were 300-600 s.

- Kd [1]: 11.1 nM
- kon [1]: 850000 M⁻¹ s⁻¹
- Kd [2]: 14.6 nM
- kon [2]: 1.2e+06 M⁻¹ s⁻¹
- Kd [3]: 19.1 nM
Molecule: EG2 VHH

- EC50 [4]: 279 nM
Molecule: EG2-Fc (Fc fusion)

- Kd [5]: 1 nM
- Kd [6]: 3.1 nM
- koff [6]: 0.00028 s⁻¹
- kon [6]: 92000 M⁻¹ s⁻¹
- Kd [1]: 1.8 nM
- koff [1]: 0.00016 s⁻¹
- kon [1]: 90000 M⁻¹ s⁻¹
- EC50 (read off the curve) [7]: ~0.02 µg/mL
- EC50 (read off the curve) [8]: ~0.02 µg/mL
- EC50 (read off the curve) [9]: ~0.02 µg/mL
- koff [10]: 0.00011 s⁻¹
- kon [10]: 110000 M⁻¹ s⁻¹
- Kd [11]: 1.1 nM
- koff [11]: 0.00017 s⁻¹
- kon [11]: 150000 M⁻¹ s⁻¹
- Kd [12]: 1.8 nM
- koff [12]: 0.00016 s⁻¹
- kon [12]: 90000 M⁻¹ s⁻¹
B1: NRC-sdAb033 (VHH)
VHH: QVQLVESGGGLVQPGGSLRLSCAASESIDSIYVMQWYRQAPEKPRDVVATLTPGGGSYYPEAVLGRFTISRDDAKNTVYLQMNSLKPEDTAVYYCNAFHRLRGTHYWGQGTQVTVSS
notes: Monomeric llama VHH; in ELISA a version with biotin acceptor peptide and 6xHis was used; also called EVE48; not shown: C-terminal c-Myc and 6xHis tags

- EC50 [13]: 1.8 nM
B2: NRC-sdAb032/NRC-sdAb033-Fc (Fc fusion)
chain 1: QVKLEESGGGLVQPGGSLRLSCSASGSISSISVMGWYRQAPGKQRELVARITSGGISNYVDSVKGRFTISGDSAKNIVYLQMNSLKPEDTAVYYCYMYVHVGYWVDYWGQGTQVTVSS
chain 2: B1 VHH
notes: Member of the group m26; also called NRC-sdAb032/033-Fc; biparatopic heterodimeric VHH/VHH-Fc

- EC50 [4]: 49 nM
B3: NRC-sdAb033-Fc (Fc fusion)
chain: B1 VHH
notes: Bivalent VHH-human IgG1 Fc fusion from HEK293-6E cells; not shown: human IgG1 Fc

- EC50 [4]: 0.5 nM
- EC50 [13]: 0.9 nM
B4: NRC-sdAb032-Fc (Fc fusion)
chain: B2 chain 1
notes: Bivalent VHH-human IgG1 Fc fusion from HEK293-6E cells; also called homodimeric NRC-sdAb032-Fc; not shown: human IgG1 Fc

- Kd [5]: 19.6 nM
- Kd [1]: 8.9 nM
- koff [1]: 0.0022 s⁻¹
- kon [1]: 250000 M⁻¹ s⁻¹
- Kd [2]: 2.6 nM
- koff [2]: 0.00077 s⁻¹
- kon [2]: 290000 M⁻¹ s⁻¹
- koff [10]: 0.0017 s⁻¹
- kon [10]: 85000 M⁻¹ s⁻¹
- binding result [14]: no binding (tested: 1000 ng/mL)
- EC50 (read off the curve) [15]: ~0.003 µg/mL
- EC50 (read off the curve) [16]: ~0.004 µg/mL
- Kd [11]: 1.7 nM
- koff [11]: 0.00067 s⁻¹
- kon [11]: 400000 M⁻¹ s⁻¹
- Kd [12]: 8.9 nM
- koff [12]: 0.0022 s⁻¹
- kon [12]: 250000 M⁻¹ s⁻¹
B5: NRC-sdAb022 (VHH)
VHH: QVQLVESGGGLVQPGGSLKLSCAVSGFAFERNGVSWYRQAPGKQREFVAVISSGTTTYKDSVKGRFTISRDNTRNTAYLQMNNLKPEDTAVYYCNLVPPTPYWGQGTQVTVSS
notes: Monomeric llama VHH; in ELISA a version with biotin acceptor peptide and 6xHis was used; Stands for the 'NRC-sdAb022-family' in the cross-species and binning sentences; also called EGFR2; NRC-sdAb022-family VHHs; not shown: C-terminal c-Myc and 6xHis tags

- EC50 [4]: 67 nM
B6: NRC-sdAb022-Fc (Fc fusion)
chain: B5 VHH
notes: as for B3

- EC50 [13]: 1.6 nM
B7: NRC-sdAb032/NRC-sdAb022-Fc (Fc fusion)
chain 1: B2 chain 1
chain 2: B5 VHH
notes: Member of the group m26; also called NRC-sdAb032/022-Fc; biparatopic heterodimeric VHH/VHH-Fc

- Kd [17]: 1.6 nM
- Kd [2]: 2.3 nM
- koff [2]: 0.00086 s⁻¹
- kon [2]: 380000 M⁻¹ s⁻¹
- Kd [11]: 1.6 nM
- koff [11]: 0.00079 s⁻¹
- kon [11]: 510000 M⁻¹ s⁻¹
B8: NRC-sdAb027 (VHH)
VHH: B5 VHH with Q3K, V5E, V97I
notes: Monomeric llama VHH; also called EGFR7; not shown: C-terminal c-Myc and 6xHis tags

- Kd [2]: 19.4 nM
- Kd [11]: 12.6 nM
- koff [11]: 0.0057 s⁻¹
- kon [11]: 460000 M⁻¹ s⁻¹
B9: NRC-sdAb023 (VHH)
VHH: QVQLVESGGGLVQPGGSLRLSCTASGIIFSRNGVSWYRQAPGKEREFVAVITLSGTTTYKDSVKGRFTISRDNTRNTGYLQMNNLKPEDTAVYYCNLVPPTSYWGQGTQVTVSS
notes: Monomeric llama VHH; also called EGFR3; not shown: C-terminal c-Myc and 6xHis tags

- Kd [12]: 6.2 nM
- koff [12]: 0.00058 s⁻¹
- kon [12]: 93000 M⁻¹ s⁻¹
B10: NRC-sdAb028-H1 (VHH)
VHH: QVQLVESGGGVVQPGRSLRLSCTVSGSFFSRDAMGWHRQAPGKGLEMVAGISSGGLSNHAESVKGRFTISRDNSKNTLYLQMNSLRAEDTAVYYCSIYEDGVWTSWGQGTLVTVSS
notes: Humanized variant H1 of NRC-sdAb028

- EC50 [4]: 86 nM
B11: NRC-sdAb028-Fc (Fc fusion)
chain: B10 VHH with Q1E, V11L, R16G, G44Q, L45R, L78V, S84N, R86K, A87P, L111Q
notes: as for B3

- EC50 [13]: 2.1 nM
B12: NRC-sdAb032/NRC-sdAb028-Fc (Fc fusion)
chain 1: B2 chain 1
chain 2: B10 VHH with Q1E, V11L, R16G, G44Q, L45R, L78V, S84N, R86K, A87P, L111Q
notes: Member of the group m26; also called NRC-sdAb032/028-Fc; biparatopic heterodimeric VHH/VHH-Fc

- Kd [12]: 16.6 nM
- koff [12]: 0.01 s⁻¹
- kon [12]: 620000 M⁻¹ s⁻¹
B13: NRC-sdAb032-H1 (VHH)
VHH: QVQLVESGGGLVQPGRSLRLSCSASGSISSISVMGWYRQAPGKGLELVARITSGGISNYVDSVKGRFTISRDSNSKNTLYLQMNSLRAEDTAVYYCYMYVHVGYWVDYWGQGTLVTVSS
notes: Humanized variant H1 of NRC-sdAb032

- Kd [2]: 25 nM
- koff [2]: 0.0068 s⁻¹
- kon [2]: 270000 M⁻¹ s⁻¹
- Kd [11]: 15.4 nM
- koff [11]: 0.0056 s⁻¹
- kon [11]: 360000 M⁻¹ s⁻¹
B14: NRC-sdAb026 (VHH)
VHH: QVQLVESGGALVQPGGSLRLSCSASGVIFGINTLAWHRQAPGKEREWVALISNAGSTKYAGSVKGRFTISRDNDKNTVYLQMDSLKPEDTAVYYCNYVPPSPAWGQGTQVTVSS
notes: Monomeric llama VHH; also called EGFR6; not shown: C-terminal c-Myc and 6xHis tags

- Kd [12]: 1.4 nM
- koff [12]: 0.00026 s⁻¹
- kon [12]: 200000 M⁻¹ s⁻¹
B15: NRC-sdAb033-H2 (VHH)
VHH: QVQLVESGGGVVQPGRSLRLSCAASESIDSIYVMQWYRQAPGKGLEVVATLTPGGGSYYPDSVKGRFTISRDNSKNTLYLQMNSLRAEDTAVYYCNAFHRLRGTHYWGQGTLVTVSS
notes: Humanized variant H2 of NRC-sdAb033

- Kd [12]: 1.7 nM
- koff [12]: 0.00022 s⁻¹
- kon [12]: 130000 M⁻¹ s⁻¹
B16: NRC-sdAb033-H1 (VHH)
VHH: B15 VHH with G42E, E46D, D61E
notes: Humanized variant H1 of NRC-sdAb033

- Kd [2]: 4.9 nM
- koff [2]: 0.0009 s⁻¹
- kon [2]: 180000 M⁻¹ s⁻¹
- Kd [11]: 2.9 nM
- koff [11]: 0.00073 s⁻¹
- kon [11]: 250000 M⁻¹ s⁻¹
B17: NRC-sdAb024 (VHH)
VHH: QVQLVESGGGLVQPGGSLRLSCAASGSSLYINAMTWYRQAPGEQREFVAIISRGGDTKYSDSVKGRFSISIDNAKNTVYLQMNSLKAEDTAVYYCNAVPPFPNWGQGTQVTVSS
notes: Monomeric llama VHH; also called EGFR4; not shown: C-terminal c-Myc and 6xHis tags

- Kd [2]: 2.8 nM
- koff [2]: 0.00071 s⁻¹
- kon [2]: 260000 M⁻¹ s⁻¹
- Kd [11]: 1.7 nM
- koff [11]: 0.00059 s⁻¹
- kon [11]: 360000 M⁻¹ s⁻¹
B18: NRC-sdAb025 (VHH)
VHH: B17 VHH with Y30T, E43D, Q44E, I51V, S52Y, D56G, S60A
notes: Monomeric llama VHH; also called EGFR5; not shown: C-terminal c-Myc and 6xHis tags

- Kd [17]: 38.5 nM
- Kd [2]: 40.4 nM
- koff [2]: 0.0098 s⁻¹
- kon [2]: 240000 M⁻¹ s⁻¹
- Kd [11]: 38.5 nM
- koff [11]: 0.012 s⁻¹
- kon [11]: 310000 M⁻¹ s⁻¹
B19: NRC-sdAb021 (VHH)
VHH: QVQLVESGGGLVQPGGSLRLSCSVSLSDFGSKHLAWHRQAPGKEREWVALIFSSGATNYANSVKGRFTISRDNSKNTVYLQMNSLKPEDTAVYYCNLVPPSPAWGQGTQVTVSS
notes: Monomeric llama VHH purified from E. coli periplasm; also called EGFR1; not shown: C-terminal c-Myc and 6xHis tags
